Measurements from publication PMC5285506.

Tested on: T1, Rob (Staphylococcus aureus FK300 (rsbU-repaired NCTC8325-4 derivative)), ORF:92c4d64d
T1 sequence: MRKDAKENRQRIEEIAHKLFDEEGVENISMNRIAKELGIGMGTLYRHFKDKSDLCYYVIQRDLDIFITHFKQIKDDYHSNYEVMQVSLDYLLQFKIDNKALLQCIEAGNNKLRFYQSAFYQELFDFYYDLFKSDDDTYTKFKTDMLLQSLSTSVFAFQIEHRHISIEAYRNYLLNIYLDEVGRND
Assay: EMSA
Details: 10 mM HEPES pH 8.0, 60 mM KCl, 4 mM MgCl2, 0.1 mM EDTA, 0.1 mg/ml BSA, 0.25 mM DTT, 5% glycerol, 1 ug salmon sperm DNA and 1 ug poly(dI-dC) per 20 ul, room …

Sequence: TTGCAATTCCTTTACCTACCTTTCGTTAGTTAGGTTGTAAGCCATATGGTAATTGATAGTATTTTAATTTGCAATAGATT (double strand) [SHORT-2]
- binding: no binding

Sequence: ACAAATATTTCCGTTTAATTATAACAACAATCTATTGCAAATTAAAATACTATCAATTACCATATGGCTTACAACCTAACTAACGAAAGGTAGGTAAAGGAATTGCAA (double strand) [SHORT-1 (108 bp)]
- binding: binds
